± gives the standard error. Variants at the floor of the assay were thinned out.
B1: glmS ribozyme (parent)
chain: AUAAAAGCGCCAGAACUACAGAAAUGUAGUUGACGAGGAGGAGGUUUAUCGAAUUUUCGGCGGAUGCCUCCAAA

Key:
Settings in all cases: with glucosamine-6-phosphate
glucosamine-6-phosphate [1] = variants of: B1; assay: self-cleavage kobs at 640 uM GlcN6P; higher = faster cleavage; RNA array
In short: (§1)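 Tiles of sequenced MiSeq chips were imaged over ~14 h at 37 °C. On them, barcoded ribozyme variants had been transcribed in situ by E. coli RNA polymerase and were tracked via a hybridised Cy3 probe while glucosamine-6-phosphate (40 μM to 10 mM) in HEPES/KCl/Mg(OAc)2 buffer flowed in. Per-tile medians, normalised to baseline and to non-cleaving reference variants, were fit to one- or two-exponential decays for kobs, and weighted Michaelis–Menten fits gave kcat and KM.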

glucosamine-6-phosphate [2] = variants of: B1; assay: self-cleavage kobs at 2500 uM GlcN6P; higher = faster cleavage; RNA array
In short: as §1

glucosamine-6-phosphate [3] = variants of: B1; assay: self-cleavage kobs at 10000 uM GlcN6P; higher = faster cleavage; RNA array
In short: as §1

Variant | self-cleavage kobs at 640 uM GlcN6P (glucosamine-6-phosphate [1]) [s⁻¹] | self-cleavage kobs at 2500 uM GlcN6P (glucosamine-6-phosphate [2]) [s⁻¹] | self-cleavage kobs at 10000 uM GlcN6P (glucosamine-6-phosphate [3]) [s⁻¹]
AUAAAAGCGCCAGAACUACAGAAAUGUAGUUGACGAGGAGGAGGUUGAUCGAAUUUUCGGCGUAUGCGUCCAAA | 6.95e-05 ± 3.1e-05 |  | 
AUAAAAGCGCCAGAACUACAGAAAUGUAGUUGACGAGAAGGAGGUUUAUCGAAGUUUCGGCGGAUGCCUCUAAA | < 1e-05 |  | 
AUAAAAGCGCCCGCACUACAGAAAUGUAGUUGACGAGGAGGAGGUUUUUCGAAUUUUCGACGGAUGCCUCCAAA | < 1e-05 |  | 
AUAAAAGCGCCAGAACUACAGAAAUGUAGUUAACGAGGAGGAGGUUUAUCGAAUUUUCGGCGGAAGCCUCUAAA | 5.38e-05 ± 1.4e-05 | 9.54e-05 ± 2.4e-05 | 
AUAAAAGCGCCAGAAAUACAGAAAUGUAGUUGACGAGGUGGAGGUUUAUCGAACUUUCGGCGGAUGCCUCCAAA | 0.000107 ± 2.9e-05 | 0.000434 ± 9.7e-05 | 0.000811 ± 0.00017
AUAAAAGCGCCAGAACUACAGAAAUGUAGAUGAUGAGGAGCAGGUUUAUCAAAUUUUCGGCGGAUGCCUCCAAA | < 1e-05 |  | 
AUAAAUGCGCCAGAACUACAGAAAUGUAGUUGACGAGGACGAGGUUUAUCGAAUUUUCGGUCGAUGCCUCCAAA | < 1e-05 |  | 
AUAAAAGCGCCAGAACUACAGAAAUGUAGUUGACGAGGCGGAGGUUUAUCCAAUUCUCGGCGGAUGCCUACAAA | < 1e-05 |  | 
AUAAAAGUGCCAGAACUACAGAAAUGUAGUUGACGAGGAGGAGGUUUAUGUAAUUCUCGGCGGAUGCCUCCAAA | < 1e-05 |  | 
AUAAAAGCGCCAGAACUACAUAAAUGUAGUUGACGAGGAGGAGGUUUAUCGAAUUUUCGGCGGAUGCCUGCAAA | 0.000253 ± 5.1e-05 | 0.000154 ± 3.9e-05 | 9.23e-05 ± 2.3e-05
AUAAAAGCGCCAGAACUACAGAAAUGUAGUAGACGAGGAGGAGGUUUAUCGAAAUUUCGGCGGAUGCAUCCAAA | 6.98e-05 ± 2.6e-05 |  | 
AUAAAAGCGCCAGAACUACAGAAAUGUAGUUGACGAGGAGAGGGGUUAUCGAAUUUUCGGCGGAUGCCUCCAAA | 0.0066 ± 0.002 |  | 
AUAAAAGCGCCAGAACUACAGAAAUGUAGGUGACGAUGAGGAGGUUUAUCGAAUCUUGGGCGGAUGCCUCCAAA | < 1e-05 |  | 
AUAAAAGCGCCAGAACUACAGAAAUGUAGUUGAGGAGGAGGAGGUUUAUCGAAUUUUCGGGCGAUGCCUCCAAA | < 1e-05 |  | 
AUAAAAGCGCCAGAACUACAGAAAUGUAGUCGACGAGGAGAAGGUUUUUCGAAUUUUCGGCGGAUGGCUCCAAA | < 1e-05 | < 1e-05 | 
AUAAAAGCGCCAGUACUACAGAAAUGUAGUUGACGAGGAGGACGUUUAUCGAAUUUUCGGCGGAUGCCUCCAAA | < 1e-05 | < 1e-05 | < 1e-05
AUAAAAGCGCCAGAUCUACAGAAAUGUAGUUGGCGAGGAGGAGUUUUUUCGAAUUUUCGGCGGAUGCCUCCAAA | < 1e-05 | < 1e-05 | < 1e-05
AUAAAAUCACCAGAACUACAGAAAUGUAGUCGACAAGGAGGAGGUUUAUCGUAUUUUCGGCGGAUGCCUCCAAA | < 1e-05 |  | 
AUAAAUGCGCCAGAACUACAGAAAUGUAGUUGACGAGGCGGAGGUUUAUCGAAUUCUCGGCGGAUGGCUCCAAA | < 1e-05 |  | 
AUAAAAGCGGCAGAACUACAGAAAUGUAGUUGACGAGGAGGAGGUUUACCGAAUUUUCGGCGGAUCCCUCCAAA | < 1e-05 | < 1e-05 | 
AUAAAAGCGCCAUAACUACAGAAAUGUAGUUGACGAUGAAGAGGUUUAUCGAAUUUUCGGCGGAUGCCGCCAAA | < 1e-05 | < 1e-05 | < 1e-05
AUAAAAGCGCCAGAUCUACAGAAAUGUAGUUGACGGGGAGUAGGUUAAUCGAAUUUUCGGCGGAUGCCUCCAAA | < 1e-05 |  | 
AUAAAAUCACCAGAACUACAGAAAUGUAGUUGACGAGUAGGAGGUUUAUCGAAUUUUCGGCGGAUGCCUCCAAA | < 1e-05 |  | 
AUAAAAGCGCCAGAACUACAGAAAUGUAGUUCACUAGGAGGAGGUAUAUCGAAUUUUCGGCGGAUGCGUCCAAA | < 1e-05 |  | 
AUAAAAGCGCCAGAACUACAGAAAUGUAGUUGACAAAGAGGAGGUAUAUCCAAUUUUCUGCGGAUGCCUCCAAA | < 1e-05 | < 1e-05 | 

— the supplement of paper PMC7125110
